Results from the supplement of paper PMC11865577.

Key:
Assay in all cases: pull-down binding Z-score (relative to library population); higher = stronger binding
[1] = system: TO-3-N3 (biotin conjugate); settings: RNA library: Library-2
How it was run: (§1)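 Binding is given as a Z-score against the library mean and standard deviation, calculated after removing the beads-only signal and averaging barcoded replicate probes without their highest and lowest values. Cy5- or Cy3-end-labelled RNA library (1 μg) was heat-folded in phosphate/NaCl/KCl buffer and incubated 60 min at 25 °C with streptavidin beads bearing 100 pmol of biotin-conjugated small molecule. After three washes, RNA eluted in hot SDS was hybridised to a DNA barcode microarray for 20 h at 55.5 °C.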

[2] = system: TO-N3-2 (biotin conjugate); settings: RNA library: Library-2
How it was run: as §1

TO-N3 (biotin conjugate) = settings: RNA library: Library-2
How it was run: as §1

[3] = system: TO-3-N3-2 (biotin conjugate); settings: RNA library: Library-2
How it was run: as §1

[4] = system: G-clamp-N3 (biotin conjugate); settings: RNA library: Library-1 (pre-miRNA loops + repeats)
How it was run: as §1

Row | Sequence | pull-down binding Z-score [1] | pull-down binding Z-score [2] | pull-down binding Z-score (TO-N3 (biotin conjugate)) | pull-down binding Z-score [3] | pull-down binding Z-score [4]
1 | GGACCCUCUCUCUACCUCU [hsa-mir-4315-1_4315-2] | -0.211 | 0.0855 | -0.188 | -0.12 | -0.489
2 | GUGUACCUCAUGUGUGUACAC [hsa-mir-5692a-2_5692a-1] | -0.584 | 0.335 | -0.563 | -0.344 | -0.853
3 | CAAAGACCAGAACUUAAUGGUCUCUG [hsa-mir-4490] | -0.471 | -1.15 | -0.888 | -0.671 | 0.704
4 | CUGUGAGGACAUCCAGGGUCACAG [hsa-mir-125a] | 0.423 | 0.969 | 0.903 | 0.169 | 3.76
5 | GAGCUGGAAGGAGUGGGCCUGGCUC [hsa-mir-6847] | 0.4 | 1.45 | 0.634 | 0.387 | 4.26
6 | UGGGCUCCCCUAGACUAGGACUCCA [hsa-mir-1825] | -0.367 | 0.508 | -0.37 | -0.507 | 0.254
7 | UGGCUGCUUGGGUCAAGUCAGCAGCCA [hsa-mir-449b] | -0.201 | -0.648 | -0.272 | -0.474 | 1.35
8 | GGUCUGAGCCCAUGUGUGGACCUAGGUCUGCUGUUAAACUGACU [hsa-mir-6831] | 0.286 | 0.647 | 0.492 | 0.106 | -0.752
9 | CCCGUAGGACACCGAGGCUUAUGAAUAGGA [hsa-mir-6081] | -0.16 | 0.62 | 0.345 | 0.141 | -0.941
10 | UUAUACCUGAUGCUCACGUAUAA [hsa-mir-208a] | 0.398 | -0.742 | 0.187 | -0.0463 | -0.85
11 | CCAAUGGUAUCCAGUGAUUCGUUGA [hsa-mir-4709] | -0.486 | 0.186 | -0.0552 | -0.442 | -0.854
12 | UUCGCGGUUGGGCU [hsa-mir-3143] | 1.21 | 0.693 | 1.33 | 0.258 | 0.897
13 | CUCUUGAUAGCAGACAU [hsa-mir-4775] | -0.326 | 0.291 | -0.14 | 0.14 | -0.839
14 | GCGGCCGCGCUGGCCGCU [hsa-mir-3665] | -0.0786 | 0.524 | -0.0622 | -0.548 | 1.02
15 | GACAGGCUGGCCUCUGGAUGACCUGC [hsa-mir-5189] | 1.18 | 1.37 | 1.4 | -0.186 | 0.679
16 | CGUUUAGUAGAUGAUUGUGCAUUGUUUCAAAAUG [hsa-mir-224] | -0.714 | -0.183 | -0.502 | -0.358 | -0.24
17 | AUUUCUGUAGCUCUGAGACUAGACCU [hsa-mir-544b] | -0.442 | 0.409 | -0.0563 | -0.376 | -0.0868
18 | CUCUGGUCAGUUGGGAGUCUGAG [hsa-mir-143] | -0.346 | 0.949 | -0.0514 | -0.014 | 0.448
19 | GGGCCGUGCACCCGUGGGCCCC [hsa-mir-1915] | -0.204 | 1.28 | 0.335 | 0.0124 | 1.73
20 | GCUUGGAGCCUUGGUAGGGAAGCAAGCUGAGGAGAUAGGA [hsa-mir-7154] | 1.22 | 1.92 | 1.57 | 0.627 | 1.23

Row | Sequence | pull-down binding Z-score [1] | pull-down binding Z-score [2] | pull-down binding Z-score (TO-N3 (biotin conjugate)) | pull-down binding Z-score [3] | pull-down binding Z-score [4]
21 | GGCAUCUAGGCUGUGCACAGUGACGCC [hsa-mir-4749] | -0.604 | 0.336 | -0.376 | -0.421 | 0.317
22 | UUAAAUGUGUCAUUUAAAAAUUCAG [hsa-mir-1972-1_1972-2] | -0.0749 | -0.257 | -0.138 | 0.161 | -1.87
23 | CCACCCACCAGGGAGCUUUCCAUGGGCUGUGGG [hsa-mir-4725] | 0.47 | 0.788 | 0.567 | 0.0654 | 1.47
24 | AAGCAGGGUUGGGCCUGGUU [hsa-mir-7641-1] | -0.192 | 0.549 | -0.00685 | -0.112 | -1.23
25 | CGGGGGGGGCCCGGGGACGGCUUGGGCCUGCCUAGUCGG [hsa-mir-1234] | 2.08 | 2.4 | 2.73 | 1.32 | 1.65
26 | GUCAUUACUUUCAAUAGC [hsa-mir-548p] | -0.59 | -0.372 | -0.684 | -0.254 | 0.0268
27 | GCCUUGUGGCAUGGAGUUCAAGC [hsa-mir-107] | 0.468 | 1.54 | 0.851 | 0.0909 | 0.5
28 | CAGUAAGCCUUGACUUAUGGCUAAAUGCUUC [hsa-mir-4273] | -0.111 | 0.273 | 0.0209 | 0.0166 | -1.02
29 | ACUUUCUGGUGCCAGAAUGAAAGU [hsa-mir-512-2_512-1] | -0.391 | 0.129 | -0.538 | -0.218 | -0.15
30 | GGAGUCCUCUAGACACC [hsa-mir-6510] | 0.483 | -0.175 | 0.373 | -0.348 | -0.716
31 | GUCUUGAUCCCCCACCCCAAGAC [hsa-mir-642b] | -0.257 | 0.091 | -0.41 | -0.299 | -1.37
32 | CCUGUCCUAUGACAAACAUGGCAGG [hsa-mir-3927] | -0.564 | -0.673 | -0.547 | -0.497 | -0.521
33 | UUAUCUGUCACCAGUCAGAUAACUGUCACCAGUCAGUUAA [hsa-mir-4764] | -0.842 | -0.396 | -0.684 | -0.324 | -0.644
34 | ACAAUAUGCUAUUAUAAUCGUAUGGCAUUGU [hsa-mir-2355] | -0.919 | -0.994 | -1.18 | -0.546 | 0.228
35 | CAUCCCGGACGGCCUGUGAGGGAUG [hsa-mir-4787] | 0.8 | 0.952 | 1.1 | 0.0114 | 1.57
36 | GACAUCUGGGCCAACUCUGAUCUC [hsa-mir-6515] | -0.163 | 0.777 | 0.113 | -0.126 | -1.32
37 | UUUUGCUUGUGUCUCUCCGCUCUGAGCAAUC [hsa-mir-96] | 0.441 | 0.411 | 0.528 | -0.0864 | -0.253
38 | GCUGCAGGCAAAGCUGGGG [hsa-mir-711] | 0.431 | 1.07 | 0.901 | 0.123 | -0.426
39 | UAUAGUGUGUUUGAUUUGCACUGUA [hsa-mir-4703] | -0.156 | -1.07 | -0.424 | -0.198 | 0.116
40 | CAGGUAGUUUUGGCAUGACUCUACUG [hsa-mir-20b] | 0.0561 | 1.44 | 0.556 | -0.229 | -0.719

Row | Sequence | pull-down binding Z-score [1] | pull-down binding Z-score [2] | pull-down binding Z-score (TO-N3 (biotin conjugate)) | pull-down binding Z-score [3] | pull-down binding Z-score [4]
41 | CCACAUAGGAGGGACAGCGGCCUUUCCAACAGG [hsa-mir-9500] | 0.253 | 0.847 | 0.58 | 0.043 | -0.994
42 | GAGAGUGCUUUCUGAAUGCAAUGC [hsa-mir-501] | -0.342 | 0.716 | -0.14 | -0.161 | 1.7
43 | CUGUGACGUGCUCCAUCACCGGGCAG [hsa-mir-3714] | -0.37 | 0.847 | -0.0254 | -0.391 | 0.138
44 | UCACAGGGCUCAGGGAAUGUGUCUGCACCUGUGA [hsa-mir-587] | 0.431 | 0.206 | 0.469 | 0.0576 | 0.296
45 | UUUGCCAUUACUUUCAGUAGCAAA [hsa-mir-548c] | -0.131 | -0.814 | -0.379 | -0.441 | -0.417
46 | GCAGAGAAGACAGUGAGCUUGCCAGUUCUGGUUUCCAACACUUCCUUUCCUGCG [hsa-mir-3911] | 0.56 | 1.3 | 0.975 | 0.236 | -1.12
47 | GAUUUCUAUGAGAACAUC [hsa-mir-3675] | -0.704 | -0.95 | -1.02 | -0.57 | -0.499
48 | UCAGGUGAAUGUGUCUGG [hsa-mir-3916] | -0.539 | -0.347 | -0.773 | -0.427 | -1.06
49 | GCCCGGGCACCGCCCCUU [hsa-mir-718] | -0.0729 | 0.973 | 0.203 | -0.109 | -1.53
50 | UGUGUGUCGCUCCGGGUCCACG [hsa-mir-574] | 0.0307 | 1.25 | 0.516 | -0.0762 | 0.438
51 | GGGCAGAAAUAGAUGGCCU [hsa-mir-4270] | 1 | 1.07 | 1 | 0.429 | 2.97
52 | UUUCUGUUGUCUGAAAGCAGA [hsa-mir-515-1_515-2] | 0.216 | -0.0707 | 0.262 | 0.223 | -0.445
53 | UGGCACAGAUCCAAUACCUUCUGUCCCC [hsa-mir-6810] | 0.0686 | 0.171 | -0.118 | -0.361 | -0.424
54 | GAGCCUUAAAGGAUGAGGUA [hsa-mir-4280] | 0.0602 | 0.54 | 0.362 | 0.063 | -0.485
55 | UAAUAGCAAUCCUUAAAUGCCAUUA [hsa-mir-4477b] | -0.947 | -1.16 | -1.24 | -0.0844 | -0.537
56 | GUCUGUUUUCUUCAUGGUUUUCUGAC [hsa-mir-6759] | -0.779 | -0.557 | -0.999 | -0.481 | 0.125
57 | UCAGUUUUGUAGCAUCAAAACU [hsa-mir-4521] | -0.308 | -0.134 | -0.342 | -0.161 | -0.216
58 | CCCAGAGAAAGCCUGAACGUUGGG [hsa-mir-585] | -0.148 | 0.386 | 0.119 | 0.0232 | -0.188
